# Experimental data: publication PMC7720148
# Key:
# Assay in all cases: single-molecule force spectroscopy
# [1] = biological target: unmodified nucleosome (human histone octamer on 601 DNA) in nucleosome arrays (human) (UniProt P04908)
# [2] = biological target: 12-mer array with an equimolar mixture of unmodified and H3K27me3-containing nucleosomes (UniProt P04908)
# [3] = biological target: H3K27M mutant nucleosome (100% H3K27M 12-mer array) (human) (UniProt P04908)
# [4] = biological target: 12-mer array with 50% H3K27M mutant copies of H3 (human) (UniProt P04908)
average transition force (all clusters) [1],average rupture force of C3 transitions [2],average rupture force of C4 transitions [2],"average C3 transition force, with SAM [3]","average C4 transition force, with SAM [3]","average transition force (all clusters), with SAM [3]","average transition force (all clusters), with SAM [4]","average C3 transition force, with SAM [1]","average C4 transition force, with SAM [1]",average rupture force of C3 transitions (adjacent nucleosome pair) [1],"average transition force (all clusters), with SAM [1]",Substance
14.5 pN,–,–,–,–,–,–,–,–,–,–,PRC2–AEBP2 complex (from UniProt Q15910;O75530;Q09028;Q15022;Q6ZN18)
17 pN,14.6 pN,16.9 pN,19.6 pN,26.1 pN,19.6 pN,18.3 pN,17.8 pN,19.8 pN,16.3 pN,17.8 pN,Polycomb repressive complex 2 (PRC2) core complex (from UniProt Q15910;O75530;Q09028;Q15022)
